Laboratory results from the supplement of paper PMC12042874.
± gives the uncertainty stated by the source.

Test: amyloid nucleation score (Sup35N fusion, yeast selection) (log enrichment); library NNK1; higher = more nucleation; inactive = no reads after selection
Procedure, shortened: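 The nucleation score is the log enrichment of output over input reads, calculated with DiMSum and centred on the mode score of non-aggregating sequences. Sequences with under 100 input reads were excluded. Reads came from Illumina sequencing of plasmid inserts from psi-negative yeast expressing Sup35N fused to peptides of 20 random codons, induced 24 hours with 100 μM copper sulfate and grown 7 days at 30°C without adenine and uracil.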

| Substance | amyloid nucleation score |
| --- | --- |
| SIPNSAQHFTSPPARFHSTG | 0.042 ± 0.69 |
| SIRFMLYVRVKR | -0.234 ± 0.66 |
| SISAASCIHFRMDVVCKTDF | -0.519 ± 0.41 |
| SIVIIG | -0.155 ± 0.7 |
| SIVMYDTNMTFRWSAYGRKN | 2.13 ± 0.096 |
| SIYEVEGVTLGLEEHNMKGE | -0.43 ± 0.43 |
| SIYSFDHYGANRFLFYGGLS | 0.358 ± 0.62 |
| SKASMEGYW | 0.739 ± 0.54 |
| SKAWNRAGELVVSCTMVS | inactive |
| SKRCWGDGMDTFSAIVEAIW | -0.128 ± 0.54 |
| SKRMNGRNP | 0.153 ± 0.47 |
| SKSCFFKQYLTSIIYLHTKK | 0.418 ± 0.32 |
| SKSFGFEYPG | -0.002 ± 0.37 |
| SKSGGHASSNG | 0.649 ± 0.85 |
| SKTEMSTTMFY | -0.037 ± 0.38 |
| SLATEYCSPFNINRFHLVSI | 1.78 ± 0.29 |
| SLAYCSFHMLKIPLRSGPTW | 0.01 ± 1.2 |
| SLDCLLYTLVDCRAFSFYKN | -0.359 ± 0.39 |
| SLDLMCGHQPRSCMVLDSRV | 0.983 ± 0.97 |
| SLFLGVVHFAVRVSLGSVWG | -0.771 ± 0.82 |
| SLFRVDYIDRFLSQFVEYNG | 0.333 ± 0.55 |
| SLHILISH | 0.537 ± 0.39 |
| SLKFEYCFSPSNVAAVDWGT | -0.34 ± 0.98 |
| SLKFRLYSPNAMALNPKALF | 0.581 ± 0.21 |
| SLKSSCRKNRLM | 0.048 ± 0.5 |

| Substance | amyloid nucleation score |
| --- | --- |
| SLLFY | inactive |
| SLLTRDVYNRRAR | -0.562 ± 0.36 |
| SLPFTFSLVMMCFFVCVRGL | -1.76 ± 1.2 |
| SLRSHML | 0.938 ± 0.98 |
| SLSKLAICMWSYIFNMSYFC | -0.139 ± 0.81 |
| SLSRNYHPFRAKIFLCLGRN | 0.097 ± 0.82 |
| SLTTHSAGHPLYIHVFNVLV | 0.147 ± 0.35 |
| SLVCNMFLSILRYFGFLNRS | inactive |
| SLVLSSFPLLIDNSSIESLV | -0.82 ± 0.42 |
| SLVSYSVHANFCVFIWTNGS | 1.25 ± 0.44 |
| SLWNSYLETRV | 1.14 ± 0.69 |
| SLWRDKDISWGGKSYVHVPS | 1.14 ± 0.75 |
| SLYELPWDNYP | -0.043 ± 1.4 |
| SMCNEVDGTDGYAAIGLYMY | -1.65 ± 2.4 |
| SMDTLLHP | -0.155 ± 0.23 |
| SMFYLSKFAVEFWRRMS | -0.097 ± 0.44 |
| SMIGRSCYEV | inactive |
| SMLMFIQIV | 1.96 ± 0.1 |
| SMLYFRNFRASLLPWAVDFT | -0.496 ± 1.7 |
| SMRWVDL | 1.19 ± 0.97 |
| SMSHGWGLLDFLWADCWWPK | -0.031 ± 1 |
| SMTVNDTLLRLRVGSAILYF | -0.852 ± 0.4 |
| SMVNNWIMDCLWAILWVIDI | inactive |
| SMVTQLRSDNLGHWANSESR | 0.108 ± 0.34 |
| SMYVPCRFSTDSTMLPNELK | -0.19 ± 0.66 |

| Substance | amyloid nucleation score |
| --- | --- |
| SNFCDSDLYLFRNWPYYWHS | -0.434 ± 0.26 |
| SNFSYMSCLLGYLPLILFAA | 0.014 ± 0.21 |
| SNIKLGFLRSLHIMKTSSDL | -0.113 ± 0.41 |
| SNKIGVCSKLMISFPCIEYN | -0.065 ± 1.1 |
| SNNGCRIQRGVRNLAKGSTL | -1.09 ± 0.9 |
| SNPIRTNV | -0.533 ± 0.38 |
| SNPRTFNDPSKPRV | 0.518 ± 0.35 |
| SNQAHSMLISTIIMILGCYC | 0.419 ± 0.34 |
| SNRALMADLKERNVINTPIN | -0.385 ± 1.9 |
| SNREFLQSVVLW | 0.209 ± 0.48 |
| SNRGRNLGSYCVGNYFGCFT | -0.224 ± 1.7 |
| SNSLFNVSQSRSSKSLYQNA | 0.264 ± 0.97 |
| SNTSRLVRRVVQSPYTTCGG | 0.312 ± 0.46 |
| SNTTIFFSFNRVPTISLNHS | 3.82 ± 0.1 |
| SNYDIWRPILSRWSDREGWV | 1.34 ± 0.36 |
| SPCLLF | -0.637 ± 2.1 |
| SPEFEEAWDGIKFYCKGANP | -1.09 ± 1.2 |
| SPEGSPNEHDYTIPAVRGGP | 0.775 ± 0.38 |
| SPFPGKEFNGIVCPLPYSMI | -0.366 ± 0.56 |
| SPHTI | 4.92 ± 0.097 |
| SPLNKMVTFVAVLAFVFVLV | 0.114 ± 0.66 |
| SPSFYFH | -0.019 ± 0.98 |
| SPTTRTCNLVKIQGTNLSHR | 1.36 ± 0.66 |
| SPWSSNRYVLNSFYLSHPRR | -0.308 ± 0.32 |
| SQHDRKYHYTIGYAQELDGL | -0.235 ± 0.43 |

| Substance | amyloid nucleation score |
| --- | --- |
| SQLESFWVYMQLRGMTYTVA | -0.081 ± 0.31 |
| SQLGMAWLSHGVDLPIRFYK | 0.241 ± 1.4 |
| SQLWCLTNKHRKQQRKAGHY | 0.027 ± 0.53 |
| SQPMSS | 0.591 ± 0.31 |
| SQVMSRLLGKFKLY | -0.609 ± 0.32 |
| SRDEFCG | -0.326 ± 0.47 |
| SRGRSNAALSLRKFVGGFCL | inactive |
| SRIGTCGLNSCCLINNIVRD | 6.919 ± 0.045 |
| SRLVFGHTNRRNSIEQTELL | inactive |
| SRRWGLN | inactive |
| SRTVTLFHHASNKSFHSSVS | -0.074 ± 0.9 |
| SRVSTFGWIIRSEYYFFWAW | 0.666 ± 0.32 |
| SRVVFTSM | -1.18 ± 1.6 |
| SRYLDIEVLSHGMNWMTFQT | -0.005 ± 0.77 |
| SSCLEGCKSEACGWSNDGPG | -0.048 ± 0.76 |
| SSDMGFFARYLSLNH | 0.512 ± 0.55 |
| SSFQGPSYSSCIRQHRNTRI | -0.614 ± 0.67 |
| SSFSLGHVDGYKSTSVDAVL | 0.048 ± 1.4 |
| SSGFVYIYSSKSLGANSKNL | -0.176 ± 1 |
| SSGPVFYKLPRLHCVGSHRH | 0.603 ± 0.5 |
| SSGQLSNKYC | 0.786 ± 0.46 |
| SSGVSNQSIQDIDMRLVYFA | 0.06 ± 0.35 |
| SSILDHLAAFVRRWFVYALL | -0.591 ± 0.98 |
| SSILISFI | -0.471 ± 0.94 |
| SSIVIRTCKWYGTVCIWELL | -0.339 ± 0.39 |

| Substance | amyloid nucleation score |
| --- | --- |
| SSKMNILP | 0.51 ± 0.26 |
| SSLMPIYRLFLWFVKVYVKP | 9.39 ± 0.049 |
| SSLQFEMVFGTCYCRKSYSR | 4.19 ± 0.082 |
| SSNFLRILIGTFVRYRV | 0.073 ± 0.37 |
| SSQVIVCDVYSQVTRFSFCE | 0.557 ± 0.29 |
| SSSGMVDSVSYDLRGRVGLR | 0.29 ± 0.3 |
| SSSIVLCAVRCSRPSWFGML | 1.45 ± 0.32 |
| SSSSYIYCYFFPQSMVMVFS | 3.66 ± 0.1 |
| SSSVCASFAVWSCCASF | 4.52 ± 0.084 |
| SSVCFVNRGSWPYSKVFNGC | -0.019 ± 0.37 |
| SSWFFYQNIAVSYSNKAINF | 0.379 ± 0.17 |
| SSWSFHARWRVRAISCACN | -0.062 ± 0.51 |
| SSYVMVCMKTYWCQEL | 2.45 ± 0.18 |
| STCGCRPGLLFWARSPYN | -0.367 ± 0.63 |
| STCLGGERSYRYVMWLVLVV | 0.148 ± 0.42 |
| STDVEGRFTEMLSELMLYVD | inactive |
| STEIATKGGGQLGIISTNDA | 0.254 ± 0.56 |
| STFIVGMRYVPLSKGR | -0.513 ± 1 |
| STGLACSSWQAFIYLCLLYY | -0.516 ± 1.1 |
| STGPAFDSKGVSTAMSRASF | inactive |
| STHCFWVTPGD | 0.483 ± 0.83 |
| STILKWRSWLARFLIHMVVV | 0.659 ± 0.47 |
| STNACRPVMAQGDHGLSVLR | 0.283 ± 0.6 |
| STNFLWTTFGFFHVCLDGAM | -0.218 ± 0.92 |
| STNIFSYATLSGFYTVTMIR | -0.618 ± 0.49 |

| Substance | amyloid nucleation score |
| --- | --- |
| STSILGANFALVWSEVVTVS | -0.023 ± 0.66 |
| STSMDPLYYDYDRLYKIHDK | 0.484 ± 0.61 |
| STVNGICSRKLAIRELFSNH | -0.063 ± 0.26 |
| SVASGVMFRAYCFWWAARKV | 0.27 ± 0.47 |
| SVCGH | -0.237 ± 0.37 |
| SVCPKINLLNFVWNYYAPTA | 6.869 ± 0.064 |
| SVDIAINALS | 0.492 ± 0.41 |
| SVDVHYAGRSC | 0.552 ± 0.36 |
| SVENQNIKRYT | 1.28 ± 0.33 |
| SVFQVCFWFKYKRR | 0.201 ± 0.43 |
| SVIAVSLETQVIAWVRYYPK | -0.315 ± 0.55 |
| SVLFNAAFFKFQNRF | 0.5 ± 0.6 |
| SVLTSMSITCWWKFWVGMSM | -0.731 ± 1.4 |
| SVMDCSFFVLPLCFGCDQKF | -0.987 ± 0.46 |
| SVNLSI | -0.196 ± 0.37 |
| SVNVRVTDYKYRGLFACAFG | 0.529 ± 0.58 |
| SVPKLKAEVE | -0.273 ± 0.2 |
| SVPVQD | 0.633 ± 0.4 |
| SVQRAV | -0.489 ± 1.7 |
| SVRCCRFGIGGYWP | -1.07 ± 1 |
| SVRVPWLASFCSKFMSGAYI | 0.058 ± 0.41 |
| SVSEGRVGLYNCG | 0.449 ± 0.89 |
| SVSGLYQHRSF | 0.184 ± 0.35 |
| SVSRYDFEVGVMGHKCCITT | -0.359 ± 0.42 |
| SVSYTPVLHCCYCIMKWNPW | 5.19 ± 0.062 |

| Substance | amyloid nucleation score |
| --- | --- |
| SVTHKTKCRLQFGVEMGQN | 1.13 ± 0.8 |
| SVVLMLKYRYMHLTGLWSWS | 0.16 ± 0.46 |
| SVWVENLEFIWRYLPSSVYP | 0.076 ± 0.3 |
| SWCNAYPQWWVRSLSMPS | -0.236 ± 0.55 |
| SWCPSQEWFMRYVFSTMCRT | 0.302 ± 0.57 |
| SWCSCQV | 1.16 ± 0.6 |
| SWLGPRWSFWFWFFIWSSGL | 1.37 ± 0.74 |
| SWRHMFYGVILGWHICSSGS | 0.925 ± 0.28 |
| SWRLK | 3.35 ± 0.073 |
| SWYGVYPFEIGFESGLESTL | -0.429 ± 0.41 |
| SYARTFMDLHNGSRH | -0.013 ± 0.25 |
| SYCFFYDDMRTWWFYS | 4.4 ± 0.11 |
| SYFVIFSGTM | inactive |
| SYGHLRAFFEDCSH | -0.145 ± 0.51 |
| SYNWMVVFVYECI | 0.931 ± 0.57 |
| SYRSEGAMETLIDGRLSDLS | 1.16 ± 0.76 |
| SYSFWPMQLTCYFFDVGRCL | 7.434 ± 0.073 |
| SYTFSVYLVNWDGF | 2.43 ± 0.26 |
| SYYDSQYGLYGESVCL | 0.738 ± 0.72 |
| SYYSGFRMATVSHRIRWRSM | 1.88 ± 0.7 |
| TAAGSNQSEAFFFTNIISE | 0.078 ± 0.84 |
| TAFVILLDHGGCDSRVIYEG | 0.043 ± 0.69 |
